For test [1], the target named is A*02:02. Description: SPR; low fitting confidence. (SPR reads the build-up and loss of mass on a sensor chip optically.)
Test [2] concerns the target A*02:07. Nature of the test: SPR.
For test [3], the target named is A*02:06. Description: SPR.
Test [4] addresses A*02:05. Description: SPR.
In test [5] the target is A*02:03. Nature of the test: SPR.
The target of test [6] is A*02:11. Nature of the test: SPR.
In test [7] the target is AFP158/HLA-A*02:01 complex. Description: SPR.
Test [8] addresses A*02:07. Nature of the test: SPR; head prints KD(1/s).
For test [9], the target named is A*02:06. Nature of the test: SPR; head prints KD(1/s).
For test [10], the target named is A*02:02. Nature of the test: SPR; head prints KD(1/s).
For test [11], the target named is A*02:05. Nature of the test: SPR; head prints KD(1/s).
For test [12], the target named is A*02:03. Nature of the test: SPR; head prints KD(1/s).
The target in test [13] is A*02:11. Description: SPR; head prints KD(1/s).
The target in test [14] is AFP158/HLA-A*02:01 complex. Nature of the test: SPR; head prints KD(1/s).
The target in test [15] is AFP158 loaded T2 cells (human;, UniProt P61769 21-119). Nature of the test: flow cytometry.
Test [16] addresses A*02:07. Nature of the test: SPR. This is another data set of the same source.
For test [17], the target named is A*02:06. Nature of the test: SPR. This is another data set of the same source.
For test [18], the target named is A*02:02. Description: SPR.
The target of test [19] is A*02:05. Description: SPR. The source holds these as a separate data set.
The target in test [20] is A*02:03. Description: SPR. This is another data set of the same source.
The target in test [21] is A*02:11. Description: SPR. This is another data set of the same source.
For test [22], the target named is AFP158/HLA-A*02:01 complex. Nature of the test: SPR. This is another data set of the same source.
For test [23], the target named is A*02:07. Description: SPR; low fitting confidence.
Test [24] addresses A*02:02. Nature of the test: SPR; low fitting confidence. The source holds these as a separate data set.
For test [25], the target named is A*02:05. Nature of the test: SPR; low fitting confidence.
The target in test [26] is A*02:03. Nature of the test: SPR; low fitting confidence.
Test [27] deals with A*02:11. Nature of the test: SPR; low fitting confidence.
Test [28] deals with A*02:06. Description: SPR; low fitting confidence.

Positions count from the first letter of the chain named. Names and notes keep the numbering of the source.

As usually defined, the Kd is the constant that tells how readily two partners part at equilibrium. Read a high Kd as weaker binding. In general, EC50 refers to the midpoint of the concentration-response curve.

B1: AS170036 VL1VH1-56Y98I108S (scFv)
scFv: QSALTQPRSVSGSPGQSVTISCAGTSSDVGSENYVSWYQQHPGKAPKLMIYQVNKRASGVPDRFSGSKSGNTASLTISGLQAEDEADYYCASYRSSDINIVFGGGTKLTVLGGGGSGGGGSGGGGSEVQLVESGGGLVQPGGSLRLSCAASGFTFSSYAMSWVRQAPGKGLEWVSTINSGTYSPYYADSVKGRFTISRDNSKNTLYLQMNSLRAEDTAVYYCAKNFFDGSWFLSPPAMDYWGQGTLVTVSSHHHHHH
Take B1: the Kd is over 4500 nM in test [1]; 1000 nM in test [2]; 69 nM in test [3]; 2400 nM in test [4]; 950 nM in test [5]; 160 nM in test [6]. Further, in test [7], binding was put at a Kd of 2.4 nM.

B2: AS190259 VL1VH1 (Fc fusion)
chain: SSELTQDPAVSVALGQTVRITCQGGGYYVNWYQQKPGQAPVLVIYLNTNRPSGIPDRFSGSSSGNTASLTITGAQAEDEADYYCQSADSSGNSAVFGGGTKLTVLGGGGSGGGGSGGGGSEVQLVESGGGLVQPGGSLRLSCAASGFTFSSYAMSWVRQAPGKGLEWVSAINSGGGSTYYADSVKGRFTISRDNSKNTLYLQMNSLRAEDTAVYYCAKAASGYGGSWWGDATLDAWGQGTLVTVSS
Take B2: the Kd in test [8] is 3500 nM; in [9] it was 800 nM; in test [10] it was 970 nM; in [11], 7000 nM; in [12], 48000 nM; in test [13], 6700 nM.

B3: AS190259 VL1VH1 scFv-mIgG2aFc (Fc fusion)
chain: B2 chain
On to B3, for which binding in test [14] was put at a Kd of 130 nM. The EC50 in [15] came out at 3.56 nM.

B4: AS179723 (Fc fusion)
chain: QAGLTQPPSMSGSPRQSVTISCTGSSNNIGGNYVNWYQHLPGTAPKLLIYDNKNRPSGVPEQISGSKSGSSASLTITGLQAEDEGDYYCASWDDSLSAVVFGGGTHLTVLGGGGSGGGGSGGGGSEVQLVESGGGLVQPGGSLRLSCAASGFTFLNYAMSWVRQAPGKGLEWVSSNSGAGSTYYSDSVKGRFTISRDYAKNVVYLQLNSLKTEDTGMYYCAKGTNVGSWSSLHYWGQGTQVTVSS
As for B4, the Kd in test [16] amounted to 1270 nM; in test [17], 114 nM; in [18], 32200 nM; in test [19], 29000 nM; in test [20], 2570 nM; in test [21], 297 nM.

B5: AS170036 VL1VH1 scFv-mIgG2aFc (Fc fusion)
chain: QSALTQPRSVSGSPGQSVTISCAGTSSDVGSENYVSWYQQHPGKAPKLMIYQVNKRASGVPDRFSGSKSGNTASLTISGLQAEDEADYYCASYRSSDHNIVFGGGTKLTVLGGGGSGGGGSGGGGSEVQLVESGGGLVQPGGSLRLSCAASGFTFSSYAMSWVRQAPGKGLEWVSTINSGTGSPYYADSVKGRFTISRDNSKNTLYLQMNSLRAEDTAVYYCAKNFFDGSWFLGPPAMDYWGQGTLVTVSS
In test [22], B5 registered a Kd of 256 nM. Besides, a half-maximal effect in test [15] (EC50) was put at 8.79 nM.

B6: AS179723 VL1g1VH1g1-N73Y (Fc fusion)
chain: QSVLTQPPSASGTPGQRVTISCSGSSNNIGGNYVNWYQQLPGTAPKLLIYDNKNRPSGVPDRFSGSKSGTSASLAISGLQSEDEADYYCASWDDSLSAVVFGGGTKLTVLGGGGSGGGGSGGGGSEVQLVESGGGLVQPGGSLRLSCAASGFTFLNYAMSWVRQAPGKGLEWVSSNSGAGSTYYADSVKGRFTISRDYSKNTLYLQMNSLRAEDTAVYYCAKGTNVGSWSSLHYWGQGTLVTVSS
For the molecule B6, the equilibrium dissociation constant (Kd) was 220 nM in test [17]; 700 nM in [21]; over 1700 nM in test [23]; over 77000 nM in [24]; over 17000 nM in [25]; over 6100 nM in test [26].

B7: AS179732 VL1g1VH1g1-N73Y (Fc fusion)
chain: B6 chain with N27S, K53S, P56A, A98G, V99A
With B7, the Kd in test [17] is 220 nM; in test [19], 17000 nM; in test [23] it was over 2400 nM; in [24] it was over 29000 nM; in [26] it was over 11000 nM; in test [27], over 1000 nM.

B8: AS190259 (Fc fusion)
chain: QSVVTQPSAVSVSLEETATITCQGGGYYVNWYQQKPGQAPVLVIYLNTNRPSGIPERFSASKSGGTATLTINGAQAEDEAAYYCQSADSSGNSAVFGGGTHLTVLGGGGSGGGGSGGGGSQVQLVQSGGGLVQPGGSLRLSCAASGFTFSSYAMSWVRQAPGKGLEWVSAINSGGGSTYYADSVKGRFTISRDNAKNTLYLQLNSLKTEDTAMYYCAKAASGYGGSWWGDATLDAWGQGTLVTVSS
Take B8: the dissociation constant Kd in [8] came out at 2500 nM; in [9] it was 520 nM; in test [10] it was 660 nM; in [11], 3800 nM; in test [12] it was 35000 nM; in test [13] it was 4500 nM.

B9: AS170036 (Fc fusion)
chain: QLVLTQPSSVSGTPGQTVTISCAGTSSDVGSENYVSWYRQLPGTAPKLLIYQVNKRASGIADRFSGSKSGNTASMTISGLQSADEADYYCASYRSSDHNIVFGGGTHLTVLGGGGSGGGGSGGGGSAVQLVESGGGLVQPGGSLRLSCTASGFTFSSYAMSWVRQAPGKGLEWVSTINSGTGSPYYADSVKGRFTISRDNAKNTLYLQLNSLKTEDTAMYYCAKNFFDGSWFLGPPAMDYWGKGTLVTISS
In the case of B9, the Kd in test [20] is 38000 nM; in [23] it was over 4800 nM; in [28] it was over 3100 nM; in [24], over 5000 nM; in [25], over 100000 nM; in [27], over 28000 nM.

The values above are taken from US20240279318A1 (published 2024).
